Data from patent US20160159924A1 (Novo Nordisk, published 2016).
Where a chain is given by its changes, count along the chain named.

B1: rec0266-0000-0010 (antibody, mouse IgG1, V domains shown)
VH: DVKLVESGGGLVKPGGSLKLSCVASGFTFSSYTMSWVRQTPEKRLEWVATISGGGSHIYYADSVKGRFTISRDNAKNTLYLQMSSLKSEDTAIYYCTRDGRDGSWFAYWGQGTLVTVSA
VL: DIVMTQSPATLSVTPGDRVSLSCRTSQSIGDYLHWYQQKSHESPRLLIKYVSQSISGIPSRFSGSGSGSDFTLSINSVESEDVGVYYCQNSHSFPLTFGSGTKLELKR
notes: also called mAb rec0266-0000-0010
B2: rec0266-0000-0010-VH_G99Y (antibody, mouse IgG1, V domains shown)
VH: B1 VH with G103Y
VL: B1 VL
B3: rec0266-0000-0010-VL_S91P (antibody, mouse IgG1, name in Kabat numbering, V domains shown)
VH: B1 VH
VL: B1 VL with S91P
B4: rec0266-0000-0010-VL_S91D (antibody, mouse IgG1, name in Kabat numbering, V domains shown)
VH: B1 VH
VL: B1 VL with S91D
B5: rec0266-0000-0010-VL_S91F (antibody, mouse IgG1, name in Kabat numbering, V domains shown)
VH: B1 VH
VL: B1 VL with S91F
B6: rec0266-0000-0010-VL_S91R (antibody, mouse IgG1, name in Kabat numbering, V domains shown)
VH: B1 VH
VL: B1 VL with S91R
B7: rec0266-0000-0010-VL_N90H (antibody, mouse IgG1, name in Kabat numbering, V domains shown)
VH: B1 VH
VL: B1 VL with N90H
B8: rec0266-0000-0010-VL_S91E (antibody, mouse IgG1, name in Kabat numbering, V domains shown)
VH: B1 VH
VL: B1 VL with S91E
B9: rec0266-0000-0010-VL_N90F (antibody, mouse IgG1, name in Kabat numbering, V domains shown)
VH: B1 VH
VL: B1 VL with N90F
B10: rec0266-0000-0010-VL_N90Q (antibody, mouse IgG1, name in Kabat numbering, V domains shown)
VH: B1 VH
VL: B1 VL with N90Q
B11: rec0266-0000-0010-VL_S91Y (antibody, mouse IgG1, name in Kabat numbering, V domains shown)
VH: B1 VH
VL: B1 VL with S91Y
B12: rec0266-0000-0010-VL_N90P (antibody, mouse IgG1, name in Kabat numbering, V domains shown)
VH: B1 VH
VL: B1 VL with N90P
B13: rec0266-0000-0010-VL_S91K (antibody, mouse IgG1, name in Kabat numbering, V domains shown)
VH: B1 VH
VL: B1 VL with S91K
B14: rec0266-0000-0010-VL_S91H (antibody, mouse IgG1, name in Kabat numbering, V domains shown)
VH: B1 VH
VL: B1 VL with S91H
B15: rec0266-0000-0010-VL_N90I (antibody, mouse IgG1, name in Kabat numbering, V domains shown)
VH: B1 VH
VL: B1 VL with N90I
B16: rec0266-0000-0010-VL_N90V (antibody, mouse IgG1, name in Kabat numbering, V domains shown)
VH: B1 VH
VL: B1 VL with N90V
B17: rec0266-0000-0010-VL_S91T (antibody, mouse IgG1, name in Kabat numbering, V domains shown)
VH: B1 VH
VL: B1 VL with S91T
B18: rec0266-0000-0010-VL_S91A (antibody, mouse IgG1, name in Kabat numbering, V domains shown)
VH: B1 VH
VL: B1 VL with S91A
B19: rec0266-0000-0010-VL_S91L (antibody, mouse IgG1, name in Kabat numbering, V domains shown)
VH: B1 VH
VL: B1 VL with S91L
B20: rec0266-0000-0010-VL_N90R (antibody, mouse IgG1, name in Kabat numbering, V domains shown)
VH: B1 VH
VL: B1 VL with N90R
B21: rec0266-0000-0010-VL_N90L (antibody, mouse IgG1, name in Kabat numbering, V domains shown)
VH: B1 VH
VL: B1 VL with N90L
B22: rec0266-0000-0010-VL_N90E (antibody, mouse IgG1, name in Kabat numbering, V domains shown)
VH: B1 VH
VL: B1 VL with N90E
B23: rec0266-0000-0010-VL_N90G (antibody, mouse IgG1, name in Kabat numbering, V domains shown)
VH: B1 VH
VL: B1 VL with N90G
B24: rec0266-0000-0010-VL_S91I (antibody, mouse IgG1, name in Kabat numbering, V domains shown)
VH: B1 VH
VL: B1 VL with S91I
B25: rec0266-0000-0010-VL_N90S (antibody, mouse IgG1, name in Kabat numbering, V domains shown)
VH: B1 VH
VL: B1 VL with N90S
B26: rec0266-0000-0010-VL_S91Q (antibody, mouse IgG1, name in Kabat numbering, V domains shown)
VH: B1 VH
VL: B1 VL with S91Q
B27: rec0266-0000-0010-VL_N90K (antibody, mouse IgG1, name in Kabat numbering, V domains shown)
VH: B1 VH
VL: B1 VL with N90K
B28: rec0266-0000-0010-VL_N90Y (antibody, mouse IgG1, name in Kabat numbering, V domains shown)
VH: B1 VH
VL: B1 VL with N90Y
B29: rec0266-0000-0010-VL_S91V (antibody, mouse IgG1, name in Kabat numbering, V domains shown)
VH: B1 VH
VL: B1 VL with S91V
B30: rec0266-0000-0010-VL_N90T (antibody, mouse IgG1, name in Kabat numbering, V domains shown)
VH: B1 VH
VL: B1 VL with N90T

biological target: T1, recombinant human sc-uPA (human, UniProt P00749 21-431); assay: SPR, mAb immobilised
T1 construct: 411 amino acid single-chain zymogen expressed in HEK293; the 20-residue signal peptide is not present in the mature protein; also called human single-chain uPA; pro-uPA
Procedure: The binding affinity to recombinant human sc-uPA protein (SEQ ID NO:1) was measured by surface plasmon resonance (SPR).
(§1) The experiments were performed on a Biacore™ instrument (GE Healthcare) and analysed with the BIAcore 4000 Evaluation Software. Anti-human uPA mAb variants were directly immobilized at 150-600 RU on flow cells of a CM5 sensor chip (GE Healthcare; cat. # BR-1000-12) via amine coupling, respectively. Recombinant human sc-uPA was diluted in HBS-N (GE Healthcare Cat BR-1006-70) with 1% BSA buffer with a dilution factor 3× ranging 1000-0.13 nM. Recombinant human sc-uPA was injected for 60 s, followed by a 600 s dissociation phase. Binding curves were measured at 25° C. with a flow rate of 30 μL/min. Regeneration of the chip surface was performed with pH1.5 Glycine for 25 s at 30 μl/min. Determination of the kinetic parameters was performed by fitting with a 1:1 binding model. Binding affinities were calculated and are stated in Table 17 below.

First: B1
Second: B2
The Kd of the first is 3.8-fold lower: 0.47 nM for the first, 1.8 nM for the second. The first binds more tightly here.

biological target: T1, recombinant human sc-uPA; assay: SPR, mAb immobilised; remark: another data set of the same source
Procedure: The binding affinity to recombinant human sc-uPA protein (SEQ ID […]) was measured by surface plasmon resonance (SPR).
as §1, with “20” for “17”

First: B1
Second: B3
The Kd of the first is 4.3-fold lower: 0.47 nM for the first, 2 nM for the second. The first binds more tightly here.

Compared with B4, B5 is 5.2-fold higher in Kd: 2.1 nM for the first, 11 nM for the second.

First: B6
Second: B7
The Kd of the first is 7.8-fold higher: 3.1 nM for the first, 0.4 nM for the second. The second binds more tightly here.

Going from B8 to B9, the Kd falls from 10 nM to 0.79 nM (13-fold). The second binds more tightly here.

Going from B10 to B11, the Kd rises from 0.32 nM to 3.6 nM (11-fold).

Going from B12 to B13, the Kd rises from 0.62 nM to 3.2 nM (5.2-fold).

First: B14
Second: B15
The Kd of the first is 8.5-fold higher: 5.3 nM for the first, 0.62 nM for the second. The second binds more tightly here.

First: B16
Second: B17
The Kd of the first is 1.5-fold lower: 0.58 nM for the first, 0.88 nM for the second. The first binds more tightly here.

First: B18
Second: B19
The Kd of the first is 4.4-fold lower: 1.3 nM for the first, 5.7 nM for the second. The first binds more tightly here.

Going from B20 to B21, the Kd falls from 1.9 nM to 0.61 nM (3.1-fold). The second binds more tightly here.

Going from B22 to B23, the Kd rises from 0.43 nM to 0.68 nM (1.6-fold). The first binds more tightly here.

Compared with B24, B25 is 7.6-fold lower in Kd: 2.9 nM for the first, 0.38 nM for the second.

Going from B26 to B27, the Kd falls from 2.2 nM to 1.1 nM (2-fold). The second binds more tightly here.

First: B28
Second: B29
The Kd of the first is 15-fold lower: 0.8 nM for the first, 12 nM for the second. The first binds more tightly here.

B30 gave a Kd of 0.48 nM.

biological target: T1, recombinant human sc-uPA; assay: SPR (Biacore), mAb immobilised, sc-uPA as analyte, 25 C
Procedure: (§2) In order to compare with murine mAb, the binding profile to recombinant human sc-uPA protein (SEQ ID NO: 1) and cynomolgus sc-uPA (SEQ ID NO: 3) was measured by surface plasmon resonance (SPR).
as §1, with “Software. […]” for “Software. Anti-human uPA mAb variants were directly immobilized at 150-600 RU on flow cells of a CM5 sensor chip (GE Healthcare; cat. # BR-1000-12) via amine coupling, respectively.”, “sc-uPA and cynomolgus sc-uPA proteins were” for “sc-uPA was”, “model. Kinetic parameters” for “model. Binding affinities”, “Table 14” for “Table 17”

With B1 the Kd was 0.944 nM.

Work on B1 yielded a koff of 0.00053 s⁻¹.

B1 showed a kon of 561000 M⁻¹ s⁻¹.

biological target: T2, recombinant cynomolgus sc-uPA (cynomolgus monkey, UniProt P16227 29-433 (Papio cynocephalus entry)); assay: as above
T2 construct: The exact signal peptide is said not to be established; also called cyno pro-uPA; cyno pro-uPA-6xHis
Procedure: as §2
as §1, with “Software. […]” for “Software. Anti-human uPA mAb variants were directly immobilized at 150-600 RU on flow cells of a CM5 sensor chip (GE Healthcare; cat. # BR-1000-12) via amine coupling, respectively.”, “sc-uPA and cynomolgus sc-uPA proteins were” for “sc-uPA was”, “model. Kinetic parameters” for “model. Binding affinities”, “Table 14” for “Table 17”

For B1, the Kd was 0.0526 nM.

For B1, the koff was 0.000104 s⁻¹.

In the case of B1, the kon is reported as 1.98e+06 M⁻¹ s⁻¹.
